{"source": "patent US20250012721A1", "about": "“FLUORESCENCE DETECTION KIT FOR ACTIVATED COMPLEMENT C1s, DETECTION METHOD USING SAME, AND USE THEREOF” (JIANGSU UNIVERSITY, priority 2022, published 2025)", "target": "T1, activated C1s (Homo sapiens, UniProt P09871)", "T1 construct": "purchased Complement Technology", "T1 sequence (P09871 16-437 limits assumed)": "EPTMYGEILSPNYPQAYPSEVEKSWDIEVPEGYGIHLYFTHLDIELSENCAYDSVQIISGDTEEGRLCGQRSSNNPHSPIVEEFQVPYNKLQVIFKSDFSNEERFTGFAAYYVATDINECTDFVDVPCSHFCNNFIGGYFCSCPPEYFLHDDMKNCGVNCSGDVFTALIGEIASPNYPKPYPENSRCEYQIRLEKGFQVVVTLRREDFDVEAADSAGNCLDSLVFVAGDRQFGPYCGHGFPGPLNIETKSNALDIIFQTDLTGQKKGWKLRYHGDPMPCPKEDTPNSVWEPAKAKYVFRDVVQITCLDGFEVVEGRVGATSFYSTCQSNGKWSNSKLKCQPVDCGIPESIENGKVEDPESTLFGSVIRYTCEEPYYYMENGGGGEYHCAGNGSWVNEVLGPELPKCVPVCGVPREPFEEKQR", "T1 sequence (P09871 438-688 limits assumed)": "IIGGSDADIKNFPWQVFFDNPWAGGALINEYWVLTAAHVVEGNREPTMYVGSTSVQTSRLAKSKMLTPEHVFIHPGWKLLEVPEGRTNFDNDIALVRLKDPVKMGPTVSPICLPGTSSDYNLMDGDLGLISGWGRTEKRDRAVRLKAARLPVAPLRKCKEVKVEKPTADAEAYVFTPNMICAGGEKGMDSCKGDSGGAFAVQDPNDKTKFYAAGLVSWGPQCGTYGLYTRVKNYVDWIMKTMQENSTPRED", "assay": "Anti-interference experiment of fluorescence detection method for activated C1s", "format": "biochemical", "conditions": "for measured activated C1s enzymatic activity: n = 4", "experimental": "• 1. Preparation of a buffer: 1) Binding Buffer: 0.1 M morpholinoethanesulfonic acid (MES, pH=5.0); • 2) Washing Buffer: TBS containing 0.05% Tween 20; • 3) Blocking Buffer: containing 0.05 M Tris, 1.0% BSA, and 0.05% Tween 20; • 4) Desired Buffer: Tris buffer containing 0.05% Tween 20 and BSA; and • 5) Tris Buffer: 0.05 M Tris, 0.15 M NaCl, and 0.2% (w/v) polyethylene glycol 8000. • 2. Preparation of immunomagnetic beads (C1s recombinant antibody-coupled magnetic beads) • (1) 10 mg of magnetic beads (Merck carboxyl magnetic beads, with a particle size of 1 μm) were washed 3 times with 1 mL of Binding Buffer, and vortexed to mix evenly. • (2) 20 μg of the C1s recombinant antibody obtained in Example 1 was added into every 1 mg of the magnetic beads, mixed well, and vortexed at a room temperature (25° C.) for 15 min. • (3) 50 μg of a coupling agent was added into every 1 mg of the magnetic beads, mixed well, and vortexed at a room temperature for 1 h. • (4) 1 mL of Binding Buffer was added and vortexed at a room temperature for 3 h. • (5) The magnetic beads were washed 4 times with 0.5 mL of Washing Buffer. • (6) The magnetic beads were resuspended with 1 mL of Desired Buffer to obtain C1s recombinant antibody-coupled magnetic beads with a concentration of 5 mg/mL, and stored at 4° C. until later use. • 3. Detection of the enzymatic activity of activated C1s • (1) 60 μL of the C1s recombinant antibody-coupled magnetic beads were stirred evenly, subjected to magnetic suction to remove a supernatant, added with 200 μL of PBS to mix well, subjected to the magnetic suction to remove a supernatant, and washed repeatedly 2 times. • (2) 10 μL of a sample to be tested or activated C1s standards with different concentrations were diluted to 100 μL with PBS, and mixed vertically with the C1s recombinant antibody-coupled magnetic beads at a room temperature for 10 min. The magnetic suction was performed to discard a supernatant. According to the enzymatic activity of the C1s standard determined in Example 4, the enzymatic activity conversion of the C1s standards with different concentrations is shown in Table 2.\n• (3) The magnetic beads were repeatedly washed 3 times with 100 μL of PBS. • (4) The magnetic beads were resuspended with 90 μL of Tris buffer. • (5) 10 μL of substrate peptide 3 was added at a concentration of 1 μg/mL. • (6) The detection was performed with a microplate reader at 360/40 excitation light wave and 460/40 emission light wave, with a best reaction time of 1 h as a detection point, and the fluorescence signals were measured and recorded. The straight line fitting was performed by taking a C1s enzymatic activity as an abscissa and a fluorescence signal as an ordinate with a double logarithmic Log-Log mathematical model and using a least square method to plot a standard curve.\nThe possibility that bilirubin, chyle, and hemoglobin in clinical samples cause interference in the experiment was taken into account. Referring to the interference check A kit, high-, medium-, and low-concentration standards were added with different concentrations of bilirubin (with final concentrations of 0 mg/mL, 0.06 mg/mL, 0.14 mg/mL, and 0.20 mg/mL, respectively), chyle (with final concentrations of 0 FTU, 600 FTU, 1,400 FTU, and 2,000 FTU, respectively), and a hemoglobin solution (with final concentrations of 0 mg/mL, 1.5 mg/mL, 3.5 mg/mL, and 5 mg/mL, respectively). The measured high, medium and low average concentrations containing different interfering substances were subtracted from the corresponding average concentrations without interfering substances, and a difference and a percentage of the difference in an average concentration of a blank control without interfering substances were calculated."}
{"substance": "Hemoglobin: hemoglobin solution, interfering substance from interference check A kit", "values": [{"measurement": "measured activated C1s enzymatic activity", "setting": "High value standard, hemoglobin 1.5 mg/mL", "value": "60.57 ± 3.66", "unit": "pmol/min/µg"}, {"measurement": "measured activated C1s enzymatic activity", "setting": "High value standard, hemoglobin 3.5 mg/mL", "value": "56.23 ± 4.58", "unit": "pmol/min/µg"}, {"measurement": "measured activated C1s enzymatic activity", "setting": "High value standard, hemoglobin 5 mg/mL", "value": "59.50 ± 5.13", "unit": "pmol/min/µg"}, {"measurement": "measured activated C1s enzymatic activity", "setting": "Low value standard, hemoglobin 1.5 mg/mL", "value": "6.00 ± 0.59", "unit": "pmol/min/µg"}, {"measurement": "measured activated C1s enzymatic activity", "setting": "Low value standard, hemoglobin 3.5 mg/mL", "value": "6.2 ± 0.56", "unit": "pmol/min/µg"}, {"measurement": "measured activated C1s enzymatic activity", "setting": "Low value standard, hemoglobin 5 mg/mL", "value": "6.37 ± 0.51", "unit": "pmol/min/µg"}, {"measurement": "measured activated C1s enzymatic activity", "setting": "Medium value standard, hemoglobin 1.5 mg/mL", "value": "29.47 ± 1.15", "unit": "pmol/min/µg"}, {"measurement": "measured activated C1s enzymatic activity", "setting": "Medium value standard, hemoglobin 3.5 mg/mL", "value": "28.16 ± 2.68", "unit": "pmol/min/µg"}, {"measurement": "measured activated C1s enzymatic activity", "setting": "Medium value standard, hemoglobin 5 mg/mL", "value": "28.23 ± 1.45", "unit": "pmol/min/µg"}, {"measurement": "interference with the detection method", "setting": "hemoglobin 5 mg/mL", "value": "not interfered"}]}
